According to PMC9599297, “Graphitic Carbon Nitride and IGZO Bio-FET for Rapid Diagnosis of Myocardial Infarction”:

Biological target: cardiac troponin I (cTnI) (UniProt P19429 2-210)
Assay: FET aptasensor (IGZO/PCN-Au NPs), drain current change; 47% current change; response 0.01-1000 ng/mL, LOD 0.0066 ng/mL (no Kd); 10 mM PBS pH 7.4 (PBS tablets: 2.7 mM KCl, 137 mM NaCl), 10 min incubation, water wash; surface blocked with MCH and 0.10 mg/mL BSA; temperature not stated
Conditions: protein: commercial

cardiac troponin I (cTnI), sequence (P19429 2-210): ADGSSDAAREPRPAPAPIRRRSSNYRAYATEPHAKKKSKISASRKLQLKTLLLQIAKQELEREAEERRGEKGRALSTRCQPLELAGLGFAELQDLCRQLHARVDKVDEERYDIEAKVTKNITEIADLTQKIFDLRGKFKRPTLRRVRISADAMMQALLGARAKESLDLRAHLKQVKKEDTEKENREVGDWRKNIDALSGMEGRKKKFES

Q: Does CGTGCAGTACGCCAACCTTTCTCATGCGCTGCCCCTTA (ssDNA, ThiC6 (thiol-C6) at 5' end, immobilised on Au NPs) [Tro4 anti-cTnI DNA aptamer] bind?
A: Result: binds
